Here are results for two molecules from patent US20080182299A1.

For experiment [1], the target named is Mouse monoclonal antibody clone 13A3.G6.H1, lot #18881C, raised against CGEN3901 (SEQ ID NO:50). In words: antigen capture competitive ELISA format #4, repeatability tests.
The target is the same in experiment [2]. In words: antigen capture competitive ELISA format #4; coat CgenBNP_49; detector 13A3.G6.H1; free peptide spiked in serum as competitor. (In general: An ELISA detects its analyte on a solid surface through an enzyme-linked reagent.)
Experiment [3] shares this target. In words: antibody capture competitive ELISA format #5; coat 13A3.G6.H1; tracer biotin-labeled CgenBNP_29; unlabeled peptide as competitor.

As to H-HPLGSPGSASDLETSGLQVRAEGSSGGLDSSNERVLTCCPKRPSSFLWN-OH (cysteine pairing not given here) [HPWN49 (also called herein CgenBNP_49, SEQ ID NO: 49)], the results for the LOD in experiment [1] and in experiment [2] were 1 to 3 ng/mL and 0.6 ng/mL, respectively.
On to AEGSSGGLDSSNERVLTCCPKRPSSFLWN [AEWN 29 (also called herein CgenBNP_29, SEQ ID NO: 48)], for which the LOD was 1 to 3 ng/mL in experiment [1], 0.3 ng/mL in experiment [2] and 5 ng/mL in experiment [3].
